Measured values from PMC7785020, “A unique hormonal recognition feature of the human glucagon-like peptide-2 receptor” (Cell Research, 2020).

Columns and labels:
[1] = molecular target: GLP-2R ECL1 (GLP-1R) (UniProt O95838); assay: radioligand binding; competition on transiently transfected COS-7 cells: unlabeled teduglutide 0.1 nM to 1 μM against 10–15 pM [125I]GLP-2(1–33, M10Y); 4 h, 4 °C; 50 mM HEPES pH 7.4, 1 mM CaCl2, 5 mM MgCl2, 0.5% BSA; three-parameter logistic fit
[2] = molecular target: GLP-2R H268^3.37A (human) (UniProt O95838); assay: as above
[3] = molecular target: GLP-2R K414^7.35 A (human) (UniProt O95838); assay: as above
[4] = molecular target: GLP-2R N247^ECL1A (human) (UniProt O95838); assay: as above
[5] = molecular target: GLP-2R N334^ECL2 A (human) (UniProt O95838); assay: as above
[6] = molecular target: GLP-2R W249^ECL1A (human) (UniProt O95838); assay: as above
[7] = molecular target: GLP-2R W340^5.36A (human) (UniProt O95838); assay: as above
[8] = molecular target: GLP-2R Y182^1.43A (human) (UniProt O95838); assay: as above
[9] = molecular target: T1, GLP-2R N334^ECL2A (Homo sapiens, UniProt O95838, N334A); assay: radioligand competition binding, N334^ECL2A; set-up: WT (1–553); expressed in transfected cells; host or cells: COS-7; conditions: COS-7, N334^ECL2 A; [^125I]GLP-2(1–33, M10Y) 10–15 pM, 4 h, 4 °C; mean ± SEM, n ≥ 3 in duplicate
T1 sequence (O95838 1-553 N334A): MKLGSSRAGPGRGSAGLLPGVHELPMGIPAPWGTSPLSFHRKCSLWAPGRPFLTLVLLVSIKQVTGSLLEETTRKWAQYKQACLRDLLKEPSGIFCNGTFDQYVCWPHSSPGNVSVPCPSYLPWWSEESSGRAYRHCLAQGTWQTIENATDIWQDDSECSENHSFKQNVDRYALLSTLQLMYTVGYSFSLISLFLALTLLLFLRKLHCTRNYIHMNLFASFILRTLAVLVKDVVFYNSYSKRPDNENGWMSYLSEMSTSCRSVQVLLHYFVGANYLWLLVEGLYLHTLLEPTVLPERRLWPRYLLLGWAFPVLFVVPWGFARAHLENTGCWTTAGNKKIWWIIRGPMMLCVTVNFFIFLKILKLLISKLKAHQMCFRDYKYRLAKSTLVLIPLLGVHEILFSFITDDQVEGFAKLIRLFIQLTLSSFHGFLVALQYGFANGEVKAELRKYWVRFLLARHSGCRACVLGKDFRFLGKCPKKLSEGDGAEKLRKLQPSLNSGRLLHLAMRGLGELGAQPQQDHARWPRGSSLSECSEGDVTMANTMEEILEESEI
Method: A stepwise oxidation reaction was performed by addition of 6 aliquots of 5 µL ChloramineT (30 µL/mL) with a 1-min interval during constant stirring. The reaction was terminated by the addition of 400 µL phase A (0.1% trifluoracetic acid) before being fractionated into 1 mL volume by reverse-phase high-performance liquid chromatography (RP-HPLC, Waters 600 SimiPrep system) on a C18 column. The iodinated protein was […] by increasing concentrations of phase B (Acetonitrile + 0.1% TFA) and tested for competitive binding ability.
One day before transfection, the COS-7 cells were seeded in 75 cm^2 culture flasks (3 million cells/flask) in DMEM, containing 3.9 g/L NaHCO3 and supplemented with 10% FBS, 1% L-glutamine, 180 units/mL penicillin and 45 µg/mL streptomycin. After an overnight culture at 37 °C, 10% CO2 and 95% air humidity, the cells were transiently transfected with different GLP-2R constructs or pcDNA3.1 vector as previously described.[52] Following 24-h incubation, the cells were transferred to Costa® microtiter plates (150,000 cells/well, PerkinElmer) to achieve a 5%–10% specific binding. […] The cells were then washed twice in binding buffer (4 °C), lysed and counted for radioactivity using a Wallac Gamma Counter (PerkinElmer).

Compound | % Binding of WT [1] [%] | % Binding of WT [2] [%] | % Binding of WT [3] [%] | % Binding of WT [4] [%] | % Binding of WT [5] [%] | % Binding of WT [6] [%] | % Binding of WT [7] [%] | % Binding of WT [8] [%] | % Binding of WT [9] [%]
[^125I]GLP-2(1–33, M10Y) (peptide) | 1.2 | 0.7 | 13.9 | 135 | 2 | 2.9 | 8.6 | 3.2 | 
CC[C@H](C)[C@H](NC(=O)[C@H](Cc1ccccc1)NC(=O)[C@H](CC(=O)O)NC(=O)[C@H](CCCNC(=N)N)NC(=O)[C@H](C)NC(=O)[C@H](C)NC(=O)[C@H](CC(C)C)NC(=O)[C@H](CC(N)=O)NC(=O)[C@H](CC(=O)O)NC(=O)[C@H](CC(C)C)NC(=O)[C@@H](NC(=O)[C@@H](NC(=O)[C@H](CC(N)=O)NC(=O)[C@H](CCSC)NC(=O)[C@H](CCC(=O)O)NC(=O)[C@H](CC(=O)O)NC(=O)[C@H](CO)NC(=O)[C@H](Cc1ccccc1)NC(=O)[C@H](CO)NC(=O)CNC(=O)[C@H](CC(=O)O)NC(=O)[C@H](C)NC(=O)[C@@H](N)Cc1c[nH]cn1)[C@@H](C)O)[C@@H](C)CC)C(=O)N[C@@H](CC(N)=O)C(=O)N[C@@H](Cc1c[nH]c2ccccc12)C(=O)N[C@@H](CC(C)C)C(=O)N[C@H](C(=O)N[C@@H](CCC(N)=O)C(=O)N[C@H](C(=O)N[C@@H](CCCCN)C(=O)N[C@H](C(=O)N[C@H](C(=O)N[C@@H](CC(=O)O)C(=O)O)[C@@H](C)O)[C@@H](C)CC)[C@@H](C)O)[C@@H](C)CC [Human GLP-2 (1–33)] |  |  |  |  |  |  |  |  | 2.4 ± 1.3
CC[C@H](C)[C@H](NC(=O)[C@H](Cc1ccccc1)NC(=O)[C@H](CC(=O)O)NC(=O)[C@H](CCCNC(=N)N)NC(=O)[C@H](C)NC(=O)[C@H](C)NC(=O)[C@H](CC(C)C)NC(=O)[C@H](CC(N)=O)NC(=O)[C@H](CC(=O)O)NC(=O)[C@H](CC(C)C)NC(=O)[C@@H](NC(=O)[C@@H](NC(=O)[C@H](CC(N)=O)NC(=O)[C@H](CCSC)NC(=O)[C@H](CCC(=O)O)NC(=O)[C@H](CC(=O)O)NC(=O)[C@H](CO)NC(=O)[C@H](Cc1ccccc1)NC(=O)[C@H](CO)NC(=O)CNC(=O)[C@H](CC(=O)O)NC(=O)CNC(=O)[C@@H](N)Cc1c[nH]cn1)[C@@H](C)O)[C@@H](C)CC)C(=O)N[C@@H](CC(N)=O)C(=O)N[C@@H](Cc1c[nH]c2ccccc12)C(=O)N[C@@H](CC(C)C)C(=O)N[C@H](C(=O)N[C@@H](CCC(N)=O)C(=O)N[C@H](C(=O)N[C@@H](CCCCN)C(=O)N[C@H](C(=O)N[C@H](C(=O)N[C@@H](CC(=O)O)C(=O)O)[C@@H](C)O)[C@@H](C)CC)[C@@H](C)O)[C@@H](C)CC [Teduglutide] |  |  |  |  |  |  |  |  | 2.0 ± 2.1
